# Laboratory results reported in the Human Domainome abundance scans (Beltran et al. 2025).
# ± gives the uncertainty stated by the source.
# B1: POU domain, class 5, transcription factor 1, residues 134 to 212; numbered along this chain, Q01860 (parent)
# chain: EESQDIKALQKELEQFAKLLKQKRITLGYTQADVGLTLGVLFGKVFSQTTICRFEALQLSFKNMCKLRPLLQKWVEEAD
# B2: Histone-lysine N-methyltransferase SETD2, residues 2382 to 2430; numbered along this chain, Q9BYW2 (parent)
# chain: SPPKPKTIVLPPNWKTARDPEGKIYYYHVITRQTQWDPPTWESPGDDAS
# Variants of: B1
# Assay: abundance fitness (aPCA) (normalised: wild type 0, dead -1); higher = more abundant; growth selection in yeast, the domain comes from the species named
# Details: Homo sapiens
row,Variant,abundance fitness
1,A78C,-0.36 ± 0.35
2,A78E,-0.06 ± 0.23
3,A78M,-0.033 ± 0.14
4,A78I,0.292 ± 0.24
5,A8E,-0.08 ± 0.4
6,L71A,-0.51 ± 0.13
7,L71S,-0.911 ± 0.26
8,L71T,-0.246 ± 0.16
9,L59M,-0.054 ± 0.17
10,L59S,-0.453 ± 0.22
11,L59P,-0.312 ± 0.37
12,L27A,-0.648 ± 0.21
13,L27Y,-0.358 ± 0.4
14,L27E,-0.842 ± 0.28
15,Q4S,-0.258 ± 0.13
16,K21R,-0.191 ± 0.12
17,T37D,0.412 ± 0.14
18,T37C,-0.733 ± 0.34
19,Q72Y,-0.582 ± 0.41
20,Q72L,-0.323 ± 0.14
21,D33K,0.128 ± 0.2
22,E12Y,-0.4 ± 0.31
23,E12L,-0.312 ± 0.12

row,Variant,abundance fitness
1,E12W,-0.226 ± 0.1
2,E12F,0.341 ± 0.3
3,Y29H,0.148 ± 0.21
4,L67R,-0.575 ± 0.12
5,S60P,0.084 ± 0.15
6,S60Q,-0.415 ± 0.36
7,S60D,0.197 ± 0.15
8,K11M,0.076 ± 0.14
9,K11A,-0.201 ± 0.14
10,K11E,-0.031 ± 0.11
11,K11T,-0.388 ± 0.3
12,Q10R,0.137 ± 0.063
13,Q10A,-0.169 ± 0.12
14,C52S,0.341 ± 0.2
15,Q48M,0.348 ± 0.35
16,E55Q,-0.498 ± 0.38
17,E55W,-0.555 ± 0.26
18,L70W,-0.442 ± 0.22
19,L70Q,0.143 ± 0.29
20,Q15R,-0.181 ± 0.083
21,Q15L,-0.259 ± 0.1
22,F42G,-0.091 ± 0.049
23,F42N,-0.191 ± 0.2

row,Variant,abundance fitness
1,F42C,0.092 ± 0.15
2,F42A,-0.014 ± 0.054
3,L19R,-0.284 ± 0.15
4,L19C,0.164 ± 0.22
5,L19Q,0.04 ± 0.36
6,K7M,-0.319 ± 0.12
7,K7V,-0.085 ± 0.065
8,C65W,-0.289 ± 0.12
9,C65Q,0.074 ± 0.13
10,G28Q,-0.389 ± 0.2
11,K23Q,-0.256 ± 0.46
12,E76S,-0.188 ± 0.15
13,E76G,-0.644 ± 0.18
14,E76P,-0.892 ± 0.39
15,E76F,-0.155 ± 0.27
16,G39S,-0.006 ± 0.092
17,L9I,-0.331 ± 0.4
18,L13I,0.099 ± 0.27
19,L20S,-0.399 ± 0.25
20,L20R,-0.299 ± 0.14
21,I51V,-0.48 ± 0.27
22,I51T,-0.338 ± 0.28
23,L57Y,0.129 ± 0.29

row,Variant,abundance fitness
1,L57R,-0.234 ± 0.098
2,L57K,-0.45 ± 0.28
3,L57S,-0.306 ± 0.16
4,I25R,-0.078 ± 0.24
5,I25K,-0.131 ± 0.47
6,I25V,0.264 ± 0.16
7,D79E,-0.067 ± 0.21
8,A32K,0.232 ± 0.2
9,F46D,0.136 ± 0.19
10,F46I,0.107 ± 0.24
11,V45W,-0.143 ± 0.058
12,V45K,0.085 ± 0.1
13,V45F,-0.15 ± 0.17
14,T26V,-0.212 ± 0.19
15,Q58R,-0.31 ± 0.12
16,Q58W,-0.179 ± 0.34
17,K44N,-0.26 ± 0.23
18,K44C,-0.381 ± 0.18
19,K44V,-0.441 ± 0.11
20,Q22H,0.027 ± 0.29
21,Q22R,-0.092 ± 0.2
22,Q22M,-0.189 ± 0.45
23,K66D,-0.477 ± 0.3

row,Variant,abundance fitness
1,K66N,0.209 ± 0.32
2,L36T,0.293 ± 0.096
3,L36W,0.249 ± 0.077
4,L36K,0.087 ± 0.15
5,L36V,0.002 ± 0.065
6,L36D,0.112 ± 0.1
7,W74F,-0.131 ± 0.47
8,K62E,0.038 ± 0.15
9,K62L,-0.579 ± 0.27
10,K73L,-0.289 ± 0.11
11,K73T,-0.083 ± 0.12
12,T49A,0.02 ± 0.11
13,T49N,-0.111 ± 0.24
14,T49P,-0.281 ± 0.23
15,E14G,-0.033 ± 0.13
16,P69N,-0.008 ± 0.27
17,P69F,-0.473 ± 0.3
18,P69M,-0.662 ± 0.21
19,L38E,-0.701 ± 0.24
20,L38C,-0.029 ± 0.25
21,L38S,-0.37 ± 0.17
22,L38G,-0.832 ± 0.18
23,E1K,-0.034 ± 0.24

row,Variant,abundance fitness
1,E1L,-0.135 ± 0.23
2,E1S,-0.58 ± 0.45
3,E77P,-0.264 ± 0.17
4,E77D,-0.107 ± 0.16
5,E77N,0.718 ± 0.33
6,E77G,-0.124 ± 0.079
7,I6C,-0.417 ± 0.43
8,I6K,0.359 ± 0.12
9,I6S,-0.054 ± 0.14
10,K18T,0.074 ± 0.13
11,R53S,-0.467 ± 0.34
12,R53P,-0.287 ± 0.46
13,R53Q,-0.074 ± 0.17
14,V75P,-0.203 ± 0.24
15,V75R,-0.661 ± 0.25
16,N63T,-0.303 ± 0.22
17,N63M,-0.088 ± 0.33
18,N63Q,-0.236 ± 0.24

# Variants of: B2
# Assay: as above
# Details: Homo sapiens
row,Variant,abundance fitness
1,S1N,0.442 ± 0.15
2,S1V,-0.252 ± 0.14
3,S1E,-0.534 ± 0.32
4,S1Y,-0.521 ± 0.28
5,S1C,0.007 ± 0.08
6,S1F,0.246 ± 0.088
7,S1A,-0.597 ± 0.25
8,P3L,0.105 ± 0.068
9,P3H,0.126 ± 0.12
10,P3W,0.064 ± 0.068
11,P3G,0.129 ± 0.055
12,P3I,0.115 ± 0.17
13,P3F,0.197 ± 0.12
14,P3Q,0.262 ± 0.04
15,P3D,0.371 ± 0.12
16,P3S,0.281 ± 0.049
17,P3V,0.444 ± 0.066

row,Variant,abundance fitness
1,P3E,0.408 ± 0.082
2,P3Y,0.335 ± 0.051
3,P3C,-0.508 ± 0.33
4,P3T,0.155 ± 0.075
5,P3N,0.585 ± 0.097
6,P3R,0.274 ± 0.054
7,P3K,0.325 ± 0.034
8,P3A,-0.191 ± 0.076
9,P3M,0.369 ± 0.1
10,P5H,-0.17 ± 0.13
11,P5W,-0.63 ± 0.12
12,P5L,0.125 ± 0.034
13,P5M,0.199 ± 0.065
14,P5C,-0.396 ± 0.079
15,P5A,0.102 ± 0.058
16,P5T,0.211 ± 0.045
17,P5F,0.133 ± 0.078
